Laboratory results published in article PMC9982069 (PNAS Nexus, 2023).

What was measured:
[1] = target: the molecule itself; assay: cross-linking
[2] = target: the molecule itself; assay: crystal structure

B1: batCOV5-M, M protein of Pipistrellus bat coronavirus HKU5, affinity- and SEC-purified (cross-linking, MST) (natural protein)
chain: MASSNVTLSNDEVLRLVKDWNFTWSVVFLLITIVLQYGYPSRSMFVYVIKMFVLWLLWPASMALSIFCAVYPIDLASQIISGILAATSCAMWISYFVQSIRLFMRTGSWWSFNPESNCLLNVPIGGTTVVRPLVEDSTSVTAVVTDGYLKMAGMHFGACDFQRLPSEVTVAKPNVLIALKMIKRQAYGTNSGVAIYHRYKAGNYRRPPIIQDQELALLRA
B1 was tested, and the “stoichiometry N” value [1] was no less than 2.

B2: batCOV5-MCTD-sfGFP, carboxy-terminal domain of batCOV5-M between the two halves of a split superfold (domain or fragment)
chain: ESNCLLNVPIGGTTVVRPLVEDSTSVTAVVTDGYLKMAGMHFGACDFQRLPSEVTVAKPNVLIALKMIKRQAYGTNSGVAIYHRYKAGN
In the case of B2, the “stoichiometry N” value [2] is reported as 4.
